Patent US20250122298A1 (published 2025)

Experiments:
recombinant human TfR-1 = recombinant human TfR-1 (human, UniProt P02786 89-760); experiment: ELISA
[1] = biological target: T1, recombinant cynomolgus TfR-1 (cynomolgus, UniProt H9EXL1 89-760); experiment: ELISA
T1 chain: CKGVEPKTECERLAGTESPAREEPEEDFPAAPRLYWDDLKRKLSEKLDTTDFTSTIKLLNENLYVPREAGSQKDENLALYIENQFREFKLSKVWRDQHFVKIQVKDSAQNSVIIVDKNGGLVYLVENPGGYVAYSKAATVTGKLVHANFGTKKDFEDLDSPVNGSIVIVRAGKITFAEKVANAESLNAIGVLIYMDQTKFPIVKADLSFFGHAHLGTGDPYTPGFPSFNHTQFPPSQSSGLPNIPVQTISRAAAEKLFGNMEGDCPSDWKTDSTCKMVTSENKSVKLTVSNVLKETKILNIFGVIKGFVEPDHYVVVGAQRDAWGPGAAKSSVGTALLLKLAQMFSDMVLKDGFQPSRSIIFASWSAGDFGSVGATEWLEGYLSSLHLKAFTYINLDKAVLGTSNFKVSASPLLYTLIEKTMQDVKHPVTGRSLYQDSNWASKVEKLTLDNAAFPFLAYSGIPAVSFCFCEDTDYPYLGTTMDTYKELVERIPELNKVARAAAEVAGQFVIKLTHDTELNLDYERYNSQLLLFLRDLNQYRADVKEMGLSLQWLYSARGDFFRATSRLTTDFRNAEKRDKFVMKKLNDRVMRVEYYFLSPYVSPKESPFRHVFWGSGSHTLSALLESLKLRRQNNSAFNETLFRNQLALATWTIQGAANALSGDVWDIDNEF

EC50 (recombinant human TfR-1): 4.1 nM
EC50 [1]: 3 nM
B1: R2D4 (Fc fusion)
chain: ARVDQTPQTATKETGESLTINCVLRDSNCALSSTYWYRKKSGSTNEENISKGGRKYVETVESGSKSFSLKINDLTVEDSGTYRCNVVGTWCMSWRDVSGDGTVVTVNA
